Assay results: publication PMC11672854

T1: Thioredoxin (TXN), P10599
T1 chain: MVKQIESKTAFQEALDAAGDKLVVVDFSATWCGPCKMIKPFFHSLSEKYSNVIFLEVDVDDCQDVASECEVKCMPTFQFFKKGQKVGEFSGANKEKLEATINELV


Key:
Assay in all cases: ELISA
[1] = molecular target: BSA, P02769; settings: chain shown with the change; plates coated with AGR2 or BSA (control); parent: 101
[2] = molecular target: PDI (PDIA1), P07237; settings: chain shown with the change; plates coated with AGR2 or PDI (PDIA1); parent: 40
[3] = molecular target: T1, Thioredoxin (TXN), P10599; settings: chain shown with the change; plates coated with AGR2 or thioredoxin (TXN); parent: 30
[4] = molecular target: anti-AGR2 monoclonal antibody MAb-15 (VH-VL of scFv-15 in a full human IgG1 backbone); settings: chain shown with the change; point at 1000 pM mAb-15 (highest concentration); plate coated with the AGR2 mutant; parent: est. 2.8; read off a plot
anti-AGR2 monoclonal antibody MAb-15 (VH-VL of scFv-15 in a full human IgG1 backbone), sequence (chain, as listed by the source, chain 1 of 2, one chain of several): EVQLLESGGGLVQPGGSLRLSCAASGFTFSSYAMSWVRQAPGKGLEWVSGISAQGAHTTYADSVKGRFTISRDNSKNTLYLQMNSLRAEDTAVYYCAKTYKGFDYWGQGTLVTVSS

PDI (PDIA1), P07237, sequence (P07237 18-508): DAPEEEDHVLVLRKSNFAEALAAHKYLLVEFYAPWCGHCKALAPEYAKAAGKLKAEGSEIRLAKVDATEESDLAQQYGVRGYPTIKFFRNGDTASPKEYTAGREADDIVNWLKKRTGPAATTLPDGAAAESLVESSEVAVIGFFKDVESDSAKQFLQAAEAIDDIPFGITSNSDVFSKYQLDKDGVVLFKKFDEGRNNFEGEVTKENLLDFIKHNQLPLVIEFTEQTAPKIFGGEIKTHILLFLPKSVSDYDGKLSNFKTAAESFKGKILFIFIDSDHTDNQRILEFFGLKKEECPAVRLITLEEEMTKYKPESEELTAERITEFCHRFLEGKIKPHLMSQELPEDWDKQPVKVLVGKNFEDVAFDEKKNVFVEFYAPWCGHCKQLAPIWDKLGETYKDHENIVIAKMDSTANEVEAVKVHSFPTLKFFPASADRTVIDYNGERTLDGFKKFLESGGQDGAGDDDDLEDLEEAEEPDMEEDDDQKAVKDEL
BSA, P02769, sequence (P02769 25-607): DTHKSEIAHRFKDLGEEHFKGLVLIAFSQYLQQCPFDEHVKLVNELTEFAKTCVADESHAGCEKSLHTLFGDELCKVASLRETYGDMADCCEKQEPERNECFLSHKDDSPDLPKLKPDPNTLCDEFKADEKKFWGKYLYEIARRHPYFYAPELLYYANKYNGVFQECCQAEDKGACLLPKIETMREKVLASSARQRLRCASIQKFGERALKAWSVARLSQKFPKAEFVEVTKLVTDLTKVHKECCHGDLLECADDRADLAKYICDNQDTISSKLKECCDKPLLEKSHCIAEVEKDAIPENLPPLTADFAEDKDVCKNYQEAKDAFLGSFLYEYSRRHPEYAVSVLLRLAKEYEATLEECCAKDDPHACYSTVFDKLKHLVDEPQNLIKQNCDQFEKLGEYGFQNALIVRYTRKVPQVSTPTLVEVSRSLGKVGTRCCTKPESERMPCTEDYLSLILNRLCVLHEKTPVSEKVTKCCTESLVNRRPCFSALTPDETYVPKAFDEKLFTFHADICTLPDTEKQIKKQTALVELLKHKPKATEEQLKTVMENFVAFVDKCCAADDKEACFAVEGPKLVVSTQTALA

other: AGR2 Specificity, BSA/AGR2 (EC50 relative to AGR2 binding) [1] | other: AGR2 Specificity, PDI/AGR2 (EC50 relative to AGR2 binding) [2] | other: AGR2 Specificity, TXN/AGR2 (EC50 relative to AGR2 binding) [3] | response [4] | Binder
751 | 451 | 266 | – | anti-AGR2 monoclonal antibody MAb-15 (VH-VL of scFv-15 in a full human IgG1 backbone) S31R; A53Y (protein) chain 1: EVQLLESGGGLVQPGGSLRLSCAASGFTFSRYAMSWVRQAPGKGLEWVSGISYQGAHTTYADSVKGRFTISRDNSKNTLYLQMNSLRAEDTAVYYCAKTYKGFDYWGQGTLVTVSS chain 2: DIQMTQSPSSLSASVGDRVTITCRASQSISSYLNWYQQKPGKAPKLLIYSASRLQSGVPSRFSGSGSGTDFTLTISSLQPEDFATYYCQQGRRMPPTFGQGTKVEIK
– | – | – | 2.3 OD450 | Anterior Gradient-2 (AGR2/PDIA17), AGR2 (21-175), 6x-His tag removed, O95994 E60A (protein) RDTTVKPGAKKDTKDSRPKLPQTLSRGWGDQLIWTQTYEAALYKSKTSNKPLMIIHHLDECPHSQALKKVFAENKEIQKLAEQFVLLNLVYETTDKHLSPDGQYVPRIMFVDPSLTVRADITGRYSNRLYAYEPADTALLLDNMKKALKLLKTEL
– | – | – | 2.7 OD450 | Anterior Gradient-2 (AGR2/PDIA17), AGR2 (21-175), 6x-His tag removed, O95994 S84A (protein) RDTTVKPGAKKDTKDSRPKLPQTLSRGWGDQLIWTQTYEEALYKSKTSNKPLMIIHHLDECPHAQALKKVFAENKEIQKLAEQFVLLNLVYETTDKHLSPDGQYVPRIMFVDPSLTVRADITGRYSNRLYAYEPADTALLLDNMKKALKLLKTEL
– | – | – | 2.3 OD450 | Anterior Gradient-2 (AGR2/PDIA17), AGR2 (21-175), 6x-His tag removed, O95994 C81A; S84A (protein) RDTTVKPGAKKDTKDSRPKLPQTLSRGWGDQLIWTQTYEEALYKSKTSNKPLMIIHHLDEAPHAQALKKVFAENKEIQKLAEQFVLLNLVYETTDKHLSPDGQYVPRIMFVDPSLTVRADITGRYSNRLYAYEPADTALLLDNMKKALKLLKTEL
– | – | – | 2.8 OD450 | Anterior Gradient-2 (AGR2/PDIA17), AGR2 (21-175), 6x-His tag removed, O95994 C81A (protein) RDTTVKPGAKKDTKDSRPKLPQTLSRGWGDQLIWTQTYEEALYKSKTSNKPLMIIHHLDEAPHSQALKKVFAENKEIQKLAEQFVLLNLVYETTDKHLSPDGQYVPRIMFVDPSLTVRADITGRYSNRLYAYEPADTALLLDNMKKALKLLKTEL
